# Data published in the RNAGym collection of RNA variant scans (doi:10.7554/elife.80360).
# B1: HDV Ribozyme (parent)
# chain: GGCCGGCAUGGUCCCAGCCUCCUCGCUGGCGCCGGCUGGGCAACAUUCCGAGGGGACCGUCCCCUCGGUAAUGGCGAAUGGGACCCA
# Variants of: B1
# Test: self-cleavage, relative activity (ratio to wild type); higher = more cleavage; co-transcriptional
row,Variant,self-cleavage
1,A71G C86G,1.01
2,G73A G80U,0.153
3,G73A G80C,0.165
4,G73A G80A,0.0652
5,U69G A71U,0.974
6,U69G A71C,0.575
7,A70G C86A,0.743
8,U69G G81C,0.101
9,U69G G81U,0.374
10,U72C C86U,0.57
11,U72C C86A,0.712
12,G73A A78C,0.265
13,G73C A78C,0.0773
14,G73C A78U,0.155
15,G73C C85A,0.231
16,A70U A83C,0.458
17,A70U A83U,0.237
18,G73A U79A,0.231
19,G73A U79C,0.186
20,G73A U79G,0.248
21,A70G A78C,0.151
22,A70G A78G,0.655
23,U69A U72A,0.609
24,U69A U72C,0.665

row,Variant,self-cleavage
1,U69A U72G,0.883
2,A70C A87C,0.831
3,A70C A87G,0.858
4,A70C A87U,1.04
5,U72G G81A,0.302
6,U72G G81U,0.178
7,A70U G76U,1.07
8,G73C C84U,0.321
9,G73C C84G,0.086
10,G73C C84A,0.277
11,A70C C85U,1.07
12,A70C C85G,1.2
13,U72G C85U,0.644
14,U72C G73U,0.272
15,A70U G81U,0.469
16,A70U G81A,0.332
17,A70U G81C,0.193
18,A70U A77G,0.665
19,A70U A77U,0.35
20,U72G G74A,0.431
21,U72A A87G,0.452
22,U72A A87C,0.81
23,U72A A87U,0.729
24,U72A U79C,0.248

row,Variant,self-cleavage
1,U69A G76A,0.727
2,U69A G76U,0.95
3,U69A G76C,0.906
4,U69A C86G,1.09
5,U69A C86U,0.739
6,U69A C86A,1
7,A70G G76C,0.956
8,A70G G76U,0.997
9,U72G G80A,0.185
10,A70G A87U,0.928
11,A70G A87C,0.883
12,A70C A78C,0.208
13,G73C C86A,0.641
14,U69G A87C,0.822
15,A70C G81U,0.249
16,A70C G81A,0.453
17,A71U C85U,1.17
18,U69A G73U,0.494
19,U69A G73C,0.264
20,A71G U72G,0.516
21,A71G A78C,0.138
22,A71U G80A,0.175
23,U72A A77C,0.199
24,U72A G74C,0.339

row,Variant,self-cleavage
1,U72G A87U,0.735
2,U72G A87C,0.709
3,U69C G81C,0.231
4,G73A G82A,0.18
5,G73A G82U,0.151
6,A70C C86G,1.35
7,A71C A83C,0.229
8,A71C A83G,0.582
9,A71C A83U,0.297
10,A71G G81A,0.475
11,A71G G81C,0.131
12,G73A A77C,0.161
13,A71G C85A,0.674
14,A71G C85G,1.03
15,A71G C85U,0.962
16,A70U G82A,0.469
17,A70U G82C,0.35
18,A70U G82U,0.567
19,A70G A77U,0.426
20,A70G A77C,0.178
21,U69C G82U,0.554
22,U69C G82C,0.361
23,A71U U72G,0.684
24,A71C C84A,0.511

row,Variant,self-cleavage
1,A71C C84U,0.604
2,A71C A87G,0.993
3,U69A G82U,0.491
4,U69C G76U,1.29
5,U69C G76C,1.11
6,U69C G76A,1.07
7,U69C A71G,0.974
8,U69G G80A,0.233
9,U69G G80U,0.31
10,A71C G82A,0.111
11,A71C G82U,0.298
12,U72A A83U,0.166
13,U72A A83C,0.219
14,U72A A83G,0.318
15,A70G C75A,0.201
16,A71G A77G,0.88
17,A71G A77U,0.764
18,U69G C84A,0.779
19,U69G C84U,0.554
20,U69G U72G,0.997
21,A70C C84U,0.594
22,A70C C84A,0.646
23,A70G C85G,0.831
24,U72C A83G,0.318

row,Variant,self-cleavage
1,G73C,0.505
2,G73A,0.691
3,A70U,0.953
4,A70C,0.894
5,A70G,0.969
6,U69C U72G,0.529
7,A71G G80U,0.196
8,U69G A78U,0.277
9,U69C A87U,0.993
10,U69C A87C,1.18
11,U69G A77C,0.369
12,A71G U79G,0.256
13,A71G U79A,0.997
14,A71C A78U,0.147
15,A71C C85G,0.554
16,U72C G82U,0.145
17,U72C G82C,0.26
18,U72C G82A,0.248
19,U69C G73C,0.633
20,U69C G73U,0.489
21,U72C U79C,0.277
22,U72C U79A,0.369
23,G73C A77U,0.151
24,G73C A77C,0.287

row,Variant,self-cleavage
1,A71U G81U,0.185
2,A71U G81C,0.345
3,A71G C75G,0.0755
4,A71G C75A,0.158
5,A71U A87C,0.913
6,U72A C86A,0.79
7,U69C C85G,0.988
8,U69C C85A,1.14
9,A71G C84G,0.465
10,A71G C84U,0.831
11,A70G G73A,0.432
12,A70G G73U,0.138
13,A70C C75U,0.0875
14,A70C C75G,0.0615
15,G73C A83C,0.264
16,G73C A83U,0.348
17,G73C A83G,0.17
18,U72A C84A,0.639
19,U72G G73C,0.639
20,U72G G73U,0.554
21,A70U G74C,0.237
22,U72C A87U,0.595
23,A71U C86A,0.729
